Data as given in PMC10786891, “Massively parallel profiling of RNA-targeting CRISPR-Cas13d”.

T1: EsCas13d, nuclease-dead (Eubacterium siraeum, UniProt B0MS50, R295A;H300A;R849A;H854A)
T1 sequence: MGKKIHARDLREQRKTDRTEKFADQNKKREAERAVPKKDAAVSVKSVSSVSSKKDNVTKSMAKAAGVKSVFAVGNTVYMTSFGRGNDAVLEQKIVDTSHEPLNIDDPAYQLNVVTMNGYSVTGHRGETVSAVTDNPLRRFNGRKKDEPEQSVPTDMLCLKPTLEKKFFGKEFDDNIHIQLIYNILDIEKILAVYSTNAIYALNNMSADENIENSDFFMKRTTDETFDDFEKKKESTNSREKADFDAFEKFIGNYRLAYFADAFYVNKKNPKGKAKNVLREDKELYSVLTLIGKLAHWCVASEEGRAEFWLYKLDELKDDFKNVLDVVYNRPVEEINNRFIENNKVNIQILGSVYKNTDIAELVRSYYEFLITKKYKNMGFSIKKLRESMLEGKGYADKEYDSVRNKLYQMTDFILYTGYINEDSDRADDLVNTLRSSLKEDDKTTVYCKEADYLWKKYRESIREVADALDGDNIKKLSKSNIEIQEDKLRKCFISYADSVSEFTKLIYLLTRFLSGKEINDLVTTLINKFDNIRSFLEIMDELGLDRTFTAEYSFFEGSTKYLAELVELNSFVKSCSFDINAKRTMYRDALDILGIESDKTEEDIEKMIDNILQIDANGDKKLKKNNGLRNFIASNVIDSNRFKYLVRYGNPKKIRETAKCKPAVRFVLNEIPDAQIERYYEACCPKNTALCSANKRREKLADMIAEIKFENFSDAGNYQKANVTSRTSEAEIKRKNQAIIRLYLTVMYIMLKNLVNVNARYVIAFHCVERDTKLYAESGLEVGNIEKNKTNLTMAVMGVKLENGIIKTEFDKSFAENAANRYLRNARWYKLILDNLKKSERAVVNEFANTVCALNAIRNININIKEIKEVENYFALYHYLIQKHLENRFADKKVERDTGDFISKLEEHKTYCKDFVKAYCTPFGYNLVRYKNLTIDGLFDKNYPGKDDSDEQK

B1: target 1 del19,del22 (mixed)
RNA 1: CACCCGUGCAAAAAUGCAGGGGUCUAAAACUGAGCGGAUAACCUCUCUAUGG
RNA 2: GGGAAUGGAUCCACAUCUACGAAUUCGUACAAGAGAGGUUAUCCGCUCACCGAGAUCGGAAGAGCACACGU
B2: target 1 C2U,U10G (mixed)
RNA 1: CACCCGUGCAAAAAUGCAGGGGUCUAAAACUGAGCGGAUAACCUCUCUAUGG
RNA 2: GGGAAUGGAUCCACAUCUACGAAUUCGUACCAUAGAGAGGUGAUCCGCUUACCGAGAUCGGAAGAGCACACGU
B3: target 1 A14C,C21U (mixed)
RNA 1: CACCCGUGCAAAAAUGCAGGGGUCUAAAACUGAGCGGAUAACCUCUCUAUGG
RNA 2: GGGAAUGGAUCCACAUCUACGAAUUCGUACUAUAGAGCGGUUAUCCGCUCACCGAGAUCGGAAGAGCACACGU
B4: target 1 U3G,G12U (mixed)
RNA 1: CACCCGUGCAAAAAUGCAGGGGUCUAAAACUGAGCGGAUAACCUCUCUAUGG
RNA 2: GGGAAUGGAUCCACAUCUACGAAUUCGUACCAUAGAGAGUUUAUCCGCGCACCGAGAUCGGAAGAGCACACGU
B5: target 1 G5A,C21U (mixed)
RNA 1: CACCCGUGCAAAAAUGCAGGGGUCUAAAACUGAGCGGAUAACCUCUCUAUGG
RNA 2: GGGAAUGGAUCCACAUCUACGAAUUCGUACUAUAGAGAGGUUAUCCACUCACCGAGAUCGGAAGAGCACACGU
B6: target 1 insC 3' of 14,insG 3' of 9 (mixed)
RNA 1: CACCCGUGCAAAAAUGCAGGGGUCUAAAACUGAGCGGAUAACCUCUCUAUGG
RNA 2: GGGAAUGGAUCCACAUCUACGAAUUCGUACCAUAGAGACGGUUAGUCCGCUCACCGAGAUCGGAAGAGCACACGU
B7: target 1 insC 3' of 15,insG 3' of 3 (mixed)
RNA 1: CACCCGUGCAAAAAUGCAGGGGUCUAAAACUGAGCGGAUAACCUCUCUAUGG
RNA 2: GGGAAUGGAUCCACAUCUACGAAUUCGUACCAUAGAGCAGGUUAUCCGCUGCACCGAGAUCGGAAGAGCACACGU
B8: target 1 insC 3' of 20,insC 3' of 10 (mixed)
RNA 1: CACCCGUGCAAAAAUGCAGGGGUCUAAAACUGAGCGGAUAACCUCUCUAUGG
RNA 2: GGGAAUGGAUCCACAUCUACGAAUUCGUACCACUAGAGAGGUUCAUCCGCUCACCGAGAUCGGAAGAGCACACGU
B9: target 1 insG 3' of 22,insG 3' of 7 (mixed)
RNA 1: CACCCGUGCAAAAAUGCAGGGGUCUAAAACUGAGCGGAUAACCUCUCUAUGG
RNA 2: GGGAAUGGAUCCACAUCUACGAAUUCGUACGCAUAGAGAGGUUAUCGCGCUCACCGAGAUCGGAAGAGCACACGU
B10: target 1 insC 3' of 8,insA 3' of 2 (mixed)
RNA 1: CACCCGUGCAAAAAUGCAGGGGUCUAAAACUGAGCGGAUAACCUCUCUAUGG
RNA 2: GGGAAUGGAUCCACAUCUACGAAUUCGUACCAUAGAGAGGUUAUCCCGCUCAACCGAGAUCGGAAGAGCACACGU
B11: target 1 C6A,U11C (mixed)
RNA 1: CACCCGUGCAAAAAUGCAGGGGUCUAAAACUGAGCGGAUAACCUCUCUAUGG
RNA 2: GGGAAUGGAUCCACAUCUACGAAUUCGUACCAUAGAGAGGCUAUCAGCUCACCGAGAUCGGAAGAGCACACGU
B12: target 1 insC 3' of 22,insU 3' of 20 (mixed)
RNA 1: CACCCGUGCAAAAAUGCAGGGGUCUAAAACUGAGCGGAUAACCUCUCUAUGG
RNA 2: GGGAAUGGAUCCACAUCUACGAAUUCGUACCCAUUAGAGAGGUUAUCCGCUCACCGAGAUCGGAAGAGCACACGU
B13: target 1 insC 3' of 9,insG 3' of 2 (mixed)
RNA 1: CACCCGUGCAAAAAUGCAGGGGUCUAAAACUGAGCGGAUAACCUCUCUAUGG
RNA 2: GGGAAUGGAUCCACAUCUACGAAUUCGUACCAUAGAGAGGUUACUCCGCUCGACCGAGAUCGGAAGAGCACACGU
B14: target 1 U8G,C22A (mixed)
RNA 1: CACCCGUGCAAAAAUGCAGGGGUCUAAAACUGAGCGGAUAACCUCUCUAUGG
RNA 2: GGGAAUGGAUCCACAUCUACGAAUUCGUAACAUAGAGAGGUUAGCCGCUCACCGAGAUCGGAAGAGCACACGU
B15: target 1 A9G,A14C (mixed)
RNA 1: CACCCGUGCAAAAAUGCAGGGGUCUAAAACUGAGCGGAUAACCUCUCUAUGG
RNA 2: GGGAAUGGAUCCACAUCUACGAAUUCGUACCAUAGAGCGGUUGUCCGCUCACCGAGAUCGGAAGAGCACACGU
B16: target 1 C2A,G15C (mixed)
RNA 1: CACCCGUGCAAAAAUGCAGGGGUCUAAAACUGAGCGGAUAACCUCUCUAUGG
RNA 2: GGGAAUGGAUCCACAUCUACGAAUUCGUACCAUAGACAGGUUAUCCGCUAACCGAGAUCGGAAGAGCACACGU
B17: target 1 insA 3' of 11,insC 3' of 9 (mixed)
RNA 1: CACCCGUGCAAAAAUGCAGGGGUCUAAAACUGAGCGGAUAACCUCUCUAUGG
RNA 2: GGGAAUGGAUCCACAUCUACGAAUUCGUACCAUAGAGAGGUAUACUCCGCUCACCGAGAUCGGAAGAGCACACGU
B18: target 1 C7U,A18U (mixed)
RNA 1: CACCCGUGCAAAAAUGCAGGGGUCUAAAACUGAGCGGAUAACCUCUCUAUGG
RNA 2: GGGAAUGGAUCCACAUCUACGAAUUCGUACCAUUGAGAGGUUAUUCGCUCACCGAGAUCGGAAGAGCACACGU
B19: target 1 C6U,G12U (mixed)
RNA 1: CACCCGUGCAAAAAUGCAGGGGUCUAAAACUGAGCGGAUAACCUCUCUAUGG
RNA 2: GGGAAUGGAUCCACAUCUACGAAUUCGUACCAUAGAGAGUUUAUCUGCUCACCGAGAUCGGAAGAGCACACGU
B20: target 1 insC 3' of 15,insC 3' of 1 (mixed)
RNA 1: CACCCGUGCAAAAAUGCAGGGGUCUAAAACUGAGCGGAUAACCUCUCUAUGG
RNA 2: GGGAAUGGAUCCACAUCUACGAAUUCGUACCAUAGAGCAGGUUAUCCGCUCACCCGAGAUCGGAAGAGCACACGU
B21: target 1 A1G,G17U (mixed)
RNA 1: CACCCGUGCAAAAAUGCAGGGGUCUAAAACUGAGCGGAUAACCUCUCUAUGG
RNA 2: GGGAAUGGAUCCACAUCUACGAAUUCGUACCAUAUAGAGGUUAUCCGCUCGCCGAGAUCGGAAGAGCACACGU
B22: target 1 del19,del20 (mixed)
RNA 1: CACCCGUGCAAAAAUGCAGGGGUCUAAAACUGAGCGGAUAACCUCUCUAUGG
RNA 2: GGGAAUGGAUCCACAUCUACGAAUUCGUACCAGAGAGGUUAUCCGCUCACCGAGAUCGGAAGAGCACACGU
B23: target 1 insC 3' of 8,insU 3' of 1 (mixed)
RNA 1: CACCCGUGCAAAAAUGCAGGGGUCUAAAACUGAGCGGAUAACCUCUCUAUGG
RNA 2: GGGAAUGGAUCCACAUCUACGAAUUCGUACCAUAGAGAGGUUAUCCCGCUCAUCCGAGAUCGGAAGAGCACACGU
B24: target 1 insC 3' of 9,insC 3' of 5 (mixed)
RNA 1: CACCCGUGCAAAAAUGCAGGGGUCUAAAACUGAGCGGAUAACCUCUCUAUGG
RNA 2: GGGAAUGGAUCCACAUCUACGAAUUCGUACCAUAGAGAGGUUACUCCGCCUCACCGAGAUCGGAAGAGCACACGU
B25: target 1 insC 3' of 8,insC 3' of 1 (mixed)
RNA 1: CACCCGUGCAAAAAUGCAGGGGUCUAAAACUGAGCGGAUAACCUCUCUAUGG
RNA 2: GGGAAUGGAUCCACAUCUACGAAUUCGUACCAUAGAGAGGUUAUCCCGCUCACCCGAGAUCGGAAGAGCACACGU
B26: target 1 insA 3' of 6,insG 3' of 6 (mixed)
RNA 1: CACCCGUGCAAAAAUGCAGGGGUCUAAAACUGAGCGGAUAACCUCUCUAUGG
RNA 2: GGGAAUGGAUCCACAUCUACGAAUUCGUACCAUAGAGAGGUUAUCCAGGCUCACCGAGAUCGGAAGAGCACACGU
B27: target 1 G17C,C21A (mixed)
RNA 1: CACCCGUGCAAAAAUGCAGGGGUCUAAAACUGAGCGGAUAACCUCUCUAUGG
RNA 2: GGGAAUGGAUCCACAUCUACGAAUUCGUACAAUACAGAGGUUAUCCGCUCACCGAGAUCGGAAGAGCACACGU
B28: target 1 insC 3' of 15,insA 3' of 2 (mixed)
RNA 1: CACCCGUGCAAAAAUGCAGGGGUCUAAAACUGAGCGGAUAACCUCUCUAUGG
RNA 2: GGGAAUGGAUCCACAUCUACGAAUUCGUACCAUAGAGCAGGUUAUCCGCUCAACCGAGAUCGGAAGAGCACACGU

Target: T1, EsCas13d, nuclease-dead
Assay: crRNA (strand 1, pre-loaded); Mg2+; 40 mM Tris-HCl pH 7.5, 150 mM NaCl, 6 mM MgCl2, 1 mM DTT, 0.1% Tween-20, 0.2 mg/ml BSA; 25 C; 10 min per concentration, then washed
Conditions: tags: His6-TwinStrep-SUMO cleaved; N-terminal SNAP kept (SNAP-Surface 488); label: 3' end held by stalled T7 RNA polymerase

Binder	Kd [nM]
B1	56 ± 16
B2	23.6 ± 1.7
B3	7.3 ± 0.6
B4	8.5 ± 0.4
B5	23 ± 6
B6	38 ± 9
B7	9.32 ± 0.33
B8	8.7 ± 0.6
B9	18.1 ± 1.1
B10	18.9 ± 1.4
B11	8.6 ± 0.7
B12	18.3 ± 2.7
B13	13.8 ± 0.7
B14	27.6 ± 3
B15	46 ± 6
B16	40 ± 4
B17	15.3 ± 0.8
B18	26.9 ± 2.3
B19	11.3 ± 0.8
B20	15.6 ± 1.3
B21	21.3 ± 2.1
B22	32.4 ± 3.4
B23	26.3 ± 2.5
B24	10.9 ± 0.7
B25	13 ± 0.9
B26	32 ± 5
B27	47 ± 12
B28	15.6 ± 0.8
